Laboratory results taken from patent US20100074892A1 (US Dept. of Health and Human Services, published 2010).

Molecular target: recombinant anthrax protective antigen (PA) (Bacillus anthracis, UniProt P13423 30-764)
Experiment: SPR (Biacore 3000), antibody immobilized on CM3, PA in solution

Sequence of recombinant anthrax protective antigen (PA) (P13423 30-764 limits assumed): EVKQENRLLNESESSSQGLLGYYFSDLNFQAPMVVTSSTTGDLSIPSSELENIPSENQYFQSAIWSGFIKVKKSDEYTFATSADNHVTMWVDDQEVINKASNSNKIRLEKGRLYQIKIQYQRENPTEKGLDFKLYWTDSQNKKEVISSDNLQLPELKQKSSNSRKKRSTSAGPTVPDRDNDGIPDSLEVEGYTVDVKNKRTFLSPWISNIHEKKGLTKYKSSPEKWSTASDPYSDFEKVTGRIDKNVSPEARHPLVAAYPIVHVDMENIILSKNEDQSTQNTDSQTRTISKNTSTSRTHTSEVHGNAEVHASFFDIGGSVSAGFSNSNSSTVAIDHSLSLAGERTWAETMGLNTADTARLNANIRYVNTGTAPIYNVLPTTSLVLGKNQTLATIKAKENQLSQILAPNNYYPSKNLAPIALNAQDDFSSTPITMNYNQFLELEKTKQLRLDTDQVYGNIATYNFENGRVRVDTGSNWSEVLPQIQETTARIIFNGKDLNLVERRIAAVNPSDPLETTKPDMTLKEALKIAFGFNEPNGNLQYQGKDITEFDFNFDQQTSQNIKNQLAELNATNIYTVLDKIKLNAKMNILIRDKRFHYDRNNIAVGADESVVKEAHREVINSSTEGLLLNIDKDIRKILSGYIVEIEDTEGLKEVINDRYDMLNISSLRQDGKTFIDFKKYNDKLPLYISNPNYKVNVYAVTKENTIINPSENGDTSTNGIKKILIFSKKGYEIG

B1: anti-PA W1 full-length IgG1 (antibody, V domains shown)
VH: EVQLLETGGGLVQPGGSLRLSCAASGFTLRSYHMSWVRRAPGKGLEWVSVIYDGGSTSYADSVKGRFTISRDNSKNTLYLQMTSLRAEDTAVYYCARSGRPLQNYYYMDVWGKGTTVTVSS
VL: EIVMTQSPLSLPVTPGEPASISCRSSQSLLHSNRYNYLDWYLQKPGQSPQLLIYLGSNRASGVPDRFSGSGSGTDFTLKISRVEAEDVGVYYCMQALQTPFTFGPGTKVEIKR
- Kd: 0.0397 nM
- koff: 1.15e-05 s⁻¹
- kon: 290000 M⁻¹ s⁻¹
